The source of these data is US20240391997A1 (BRIGHTPATH BIOTHERAPEUTICS, published 2024).

Experiment [1] concerns the target T1, biotinylated human Tim-3-Fc antigen (in-house preparation) (human, biotinylated).
T1 construct: limits of the Tim-3 part not given
Put plainly: competition flow cytometry, biotinylated Tim-3-Fc premixed with antibody, binding to phosphatidylserine on apoptotic Jurkat cells (ligand not a protein). For orientation: In flow cytometry, cells or beads pass a laser one at a time.

In experiment [2] the target is T2, human Tim-3 expressed on cells (Jurkat cells stably expressing, Expi293 cells transiently expressing, … (human, UniProt Q8TDQ0 22-301)).
T2 construct: whole, on cells; One entry for all cell-surface forms; the cell type is named under assay; also called human Tim-3 expressed on the cell membrane
Put plainly: flow cytometry on activated human CD4 T cells, KD from MFI curve.

Experiment [3] has as its target T2, human Tim-3 expressed on cells (Jurkat …). The experiment in a line: flow cytometry on Expi293 cells transiently expressing human Tim-3, KD from MFI curve.
Experiment [4] concerns the target T1, biotinylated human Tim-3-Fc antigen …. The experiment in a line: competition ELISA, biotinylated Tim-3-Fc premixed with antibody, binding to coated human Galectin-9. For orientation: An ELISA detects its analyte on a solid surface through an enzyme-linked reagent.
For experiment [5] the target is unchanged. Described as above. This is another data set of the same source.
The target in experiment [6] is T2, human Tim-3 expressed on cells (Jurkat …). The experiment in a line: flow cytometry on Jurkat cells stably expressing human Tim-3, KD from MFI curve.
For experiment [7] the target is unchanged. Put plainly: flow cytometry on activated human CD8 T cells, KD from MFI curve.
Experiment [8] has as its target T1, biotinylated human Tim-3-Fc antigen …. Put plainly: competition flow cytometry, biotinylated Tim-3-Fc premixed with antibody, binding to phosphatidylserine on apoptotic Jurkat cells (ligand not a protein). The source holds these as a separate data set.
The target is the same in experiment [9]. The experiment in a line: competition ELISA: biotinylated human Tim-3-Fc premixed with the antibody, added to plate-bound human Galectin-9 (blocked ligand); streptavidin-HRP; Binding (%).
Experiment [10] deals with T2, human Tim-3 expressed on cells (Jurkat …). The experiment in a line: flow cytometry on Expi293 cells transiently expressing human Tim-3, KD from MFI curve. This is another data set of the same source.
Experiment [11] has as its target T1, biotinylated human Tim-3-Fc antigen …. Put plainly: competition ELISA, biotinylated Tim-3-Fc premixed with antibody, binding to coated human Galectin-9. This is another data set of the same source.
Experiment [12] shares this target. The experiment in a line: competition flow cytometry, biotinylated Tim-3-Fc premixed with antibody, binding to phosphatidylserine on apoptotic Jurkat cells (ligand not a protein). The source holds these as a separate data set.
Experiment [13] addresses T2, human Tim-3 expressed on cells (Jurkat …). Put plainly: flow cytometry on Jurkat cells stably expressing human Tim-3, KD from MFI curve. The source holds these as a separate data set.
The target is the same in experiment [14]. The experiment in a line: flow cytometry on activated human CD8 T cells, KD from MFI curve. The source holds these as a separate data set.
Experiment [15] shares this target. The experiment in a line: flow cytometry on activated human CD4 T cells, KD from MFI curve. This is another data set of the same source.

A value given as a limit tells only on which side of the number the result lay.

B1: Ch428003ct antibody (bispecific antibody, not shown: a dimerising Fc or GST)
scFv 1: EVMLMESGGGLVKLGGSLKLSCAASGFTFSSYYMSWVRQTPEKRLEWVATISNSGGSIYYLDSVKDRFTISRDNAKNTLYLQMSSLNSEDTAVYYCARDPYYSNYVPMDYWGQGTSVTVSSGGGGSGGGGSGGGGSGGGGSSIVMTQTPKFMSTSVGDRVSVTCKASQYVDTYVAWYQQKPGQSPKPLIYSASTRHTGVPARFTGSGSGTDFTLTISNVQSEDLAEYFCAQYSSSPLTFGAGTKLELK
scFv 2: QVQLQQSGPELVKPGDSVKMSCKASGYTFTDYYMDWVKQSHGKSLEWIGYIYPNNGGTSYNQKFKGKATLTVDKSSSTAYMELHSLTSEDSAVYYCARGGYYSYYSYDYWGQGTTLTVSSGGGGSGGGGSGGGGSGGGGSSIVMTQTPKFLPVSAGDRVTMTCKASQSVGNNVAWYQQKPGQSPKLLIYYASNRYTGVPDRFTGSGSGTDFTFTISSVQVEDLAVYFCQQHYSSPYTFGTGTKLEIK
With B1, the IC50 – broadly, the concentration needed to halve the response being measured – in [1] came out at 12.8 nM; in [4], 0.454 nM. Moreover, the results for the equilibrium dissociation constant (Kd) in [2], in experiment [3] and in [6] were 0.218 nM, 1.37 nM and 0.194 nM, respectively. Besides, in [5], the “inhibition of the binding between human Tim-3 and human Galectin-9” value (from here on “inhibition”) was at least 90%.

B2: Ch621003ct antibody (bispecific antibody, not shown: a dimerising Fc or GST)
scFv 1: EVMLMESGGGLVKLGGSLKLSCAASGFTFSSYYMSWVRQTPEKRLEWVATISNSGGSIYYLDSVKDRFTISRDNAKNTLYLQMSSLNSEDTAVYYCARDPYYSNYVPMDYWGQGTSVTVSSGGGGSGGGGSGGGGSGGGGSSIVMTQTPKFMSTSVGDRVSVTCKASQYVDTYVAWYQQKPGQSPKPLIYSASTRHTGVPARFTGSGSGTDFTLTISNVQSEDLAEYFCAQYSSSPLTFGAGTKLELK
scFv 2: QIQLQQSGPELVKPGDSVKMSCKASGYTFTDYYMDWVKQSHGKSLEWIGYIYPNNGGTSYNQKFKGKATLTVDKSSSTAYMELHSLTSEDSAVYYCARSGYKAYYAMDYWGQGTTLTVSSGGGGSGGGGSGGGGSGGGGSSIVMTQTPKFLPVSAGDRVTMTCKASQSVGNNVAWYQQKPGQSPKLLIYYASNRYTGVPDRFTGSGSGTDFTFTISSVQVEDLAVYFCQQHYSSPYTFGSGTKLEIK
As to B2, the results for the IC50 in experiment [1] and in [4] were 16.3 nM and 0.751 nM, respectively. Further, the Kd (in general, the concentration at which binding is half-saturated) in experiment [2] turned out to be 0.287 nM; in [3], 1.82 nM; in [7] it was 0.308 nM; in experiment [6] it was 0.256 nM. The “inhibition” value in experiment [5] is at least 90%.

B3: Ch149003ct antibody (bispecific antibody, not shown: a dimerising Fc or GST)
scFv 1: EVMLMESGGGLVKLGGSLKLSCAASGFTFSSYYMSWVRQTPEKRLEWVATISNSGGSIYYLDSVKDRFTISRDNAKNTLYLQMSSLNSEDTAVYYCARDPYYSNYVPMDYWGQGTSVTVSSGGGGSGGGGSGGGGSGGGGSSIVMTQTPKFMSTSVGDRVSVTCKASQYVDTYVAWYQQKPGQSPKPLIYSASTRHTGVPARFTGSGSGTDFTLTISNVQSEDLAEYFCAQYSSSPLTFGAGTKLELK
scFv 2: QVQLQQSGPERVKPGDSVKMSCKASGYTFTDYYMDWVKQSHGKSLEWIGYIYPNNGGTSYNQKFKGKATLTVDKSSSTAYMELHSLTSEDSAVYYCARSGYGNYYTMDYWGQGTSVTVSAGGGGSGGGGSGGGGSGGGGSSIVMTQTPKFMPVSAGDRVTMTCKASQSVGNNVAWYQQKPGQSPKLLIYYASNRYTGVPDRFTGSGSGTDFTFTISSVQVEDLAVYFCQQHYSSPSTFGTGTKLEIK
As for B3, the concentration for half-maximal inhibition (IC50) worked out at 22.9 nM in experiment [1] and 0.589 nM in [4]. In addition, the dissociation constant (Kd) in experiment [2] stood at 0.508 nM; in [3], 2.17 nM; in experiment [7], 0.558 nM; in experiment [6], 0.404 nM. Also, the “inhibition” value in experiment [5] was at least 90%.

B4: Hu003_13_F20_LA antibody (antibody, V domains shown)
VH: QVQLQESGGGLVKPGGSLKLSCAASGFTFSSYYMSWVRQTPDKRLEWVATISNSGGSTYYPDSVKDRFTISRDNAKNTLYLQMSSLKSEDTAMYYCARDPYYTNYVPMDYWGQGTMVTVSS
VL: DIVMTQSPSFLSASVGDRVTITCKASQYVDTYVAWYQQRPGKAPKPLIYSASTRHTGVPSRFSGSGSGTEFTLTISSLQPEDFATYFCAQYSSSPLTFGGGTKLELK
Molecule B4 gave an IC50 in experiment [8] of 10.7 nM. Moreover, the “IC50 (read off the curve)” value in experiment [9] was around 0.5 nM.

B5: Hu621003ct antibody (bispecific antibody, not shown: a dimerising Fc or GST)
scFv 1: QVQLQESGGGLVKPGGSLKLSCAASGFTFSSYYMSWVRQTPDKRLEWVATISNSGGSTYYPDSVKDRFTISRDNAKNTLYLQMSSLKSEDTAMYYCARDPYYTNYVPMDYWGQGTMVTVSSGGGGSGGGGSGGGGSGGGGSDIVMTQSPSFLSASVGDRVTITCKASQYVDTYVAWYQQRPGKAPKPLIYSASTRHTGVPSRFSGSGSGTEFTLTISSLQPEDFATYFCAQYSSSPLTFGGGTKLELK
scFv 2: QVQLVQSGAEVKKPGASVKVSCKASGYTFTDYYMDWVRQAPGQGLEWLGYIYPNKGGTSYNQKFKGRVTMTTDKSTSTAYMELRSLRSDDTAVYYCARSGYKAYYAMDYWGQGTTVTVSSGGGGSGGGGSGGGGSGGGGSDIVMTQSQKFMSTSVGDRVSITCKASQSVGNNVAWYQQKPGQSPKLLIYYASNRYTGVPDRFTGSGSGTDFTLTISNMQSEDLADYFCQQHYSSPYTFGGGTKLEIK
As to B5, the Kd in experiment [10] turned out to be 2.27 nM; in experiment [13] it was 0.283 nM. Further, in experiment [5], the “inhibition” value was at least 90%. Moreover, the half-maximal inhibitory concentration (IC50) in [11] came to 0.819 nM; in experiment [12], 32.3 nM.

B6: Hu149003ct antibody (bispecific antibody, not shown: a dimerising Fc or GST)
scFv 1: QVQLQESGGGLVKPGGSLKLSCAASGFTFSSYYMSWVRQTPDKRLEWVATISNSGGSTYYPDSVKDRFTISRDNAKNTLYLQMSSLKSEDTAMYYCARDPYYTNYVPMDYWGQGTMVTVSSGGGGSGGGGSGGGGSGGGGSDIVMTQSPSFLSASVGDRVTITCKASQYVDTYVAWYQQRPGKAPKPLIYSASTRHTGVPSRFSGSGSGTEFTLTISSLQPEDFATYFCAQYSSSPLTFGGGTKLELK
scFv 2: QVQLVQSGAEVKKPGASVKVSCKASGYTFTDYYMDWVRQAPGQGLEWLGYIYPNKGGTSYNQKFKGRVTMTTDKSTSTAYMELRSLRSDDTAVYYCARSGYGNYYTMDYWGQGTTVTVSSGGGGSGGGGSGGGGSGGGGSDIVMTQSQKFMSTSVGDRVSITCKASQSVGNNVAWYQQKPGQSPKLLIYYASNRYTGVPDRFTGSGSGTDFTLTISNMQSEDLADYFCQQHYSSPSTFGGGTKLEIK
For the molecule B6, the Kd in experiment [10] was 4.16 nM; in [14] it was 0.97 nM; in experiment [15], 0.917 nM; in experiment [13], 0.904 nM. The “inhibition” value in experiment [5] was at least 90%. Further, the concentration for half-maximal inhibition (IC50) in experiment [11] amounted to 1.12 nM; in experiment [12], 32.3 nM.

B7: Hu428003ct antibody (bispecific antibody, not shown: a dimerising Fc or GST)
scFv 1: QVQLQESGGGLVKPGGSLKLSCAASGFTFSSYYMSWVRQTPDKRLEWVATISNSGGSTYYPDSVKDRFTISRDNAKNTLYLQMSSLKSEDTAMYYCARDPYYTNYVPMDYWGQGTMVTVSSGGGGSGGGGSGGGGSGGGGSDIVMTQSPSFLSASVGDRVTITCKASQYVDTYVAWYQQRPGKAPKPLIYSASTRHTGVPSRFSGSGSGTEFTLTISSLQPEDFATYFCAQYSSSPLTFGGGTKLELK
scFv 2: QVQLVQSGAEVKKPGASVKVSCKASGYTFTDYYMDWVRQAPGQGLEWLGYIYPNKGGTSYNQKFKGRVTMTTDKSTSTAYMELRSLRSDDTAVYYCARGGYYSYYSYDYWGQGTTVTVSSGGGGSGGGGSGGGGSGGGGSDIVMTQSQKFMSTSVGDRVSITCKASQSVGNNVAWYQQKPGQSPKLLIYYASNRYTGVPDRFTGSGSGTDFTLTISNMQSEDLADYFCQQHYSSPYTFGGGTKLEIK
On to B7, for which the Kd in [10] was 2.3 nM; in experiment [14], 0.263 nM; in [15], 0.279 nM; in experiment [13] it was 0.232 nM. Moreover, the “inhibition” value in experiment [5] is at least 90%. Further, the IC50 in experiment [11] was found to be 0.712 nM; in [12], 27.3 nM.
